For the test, the target named is GFP-LL5β (-ADA) (UniProt Q86SQ0). The test can be described thus: co-IP.
UniProt Q86SQ0, sequence (Q86SQ0 whole entry): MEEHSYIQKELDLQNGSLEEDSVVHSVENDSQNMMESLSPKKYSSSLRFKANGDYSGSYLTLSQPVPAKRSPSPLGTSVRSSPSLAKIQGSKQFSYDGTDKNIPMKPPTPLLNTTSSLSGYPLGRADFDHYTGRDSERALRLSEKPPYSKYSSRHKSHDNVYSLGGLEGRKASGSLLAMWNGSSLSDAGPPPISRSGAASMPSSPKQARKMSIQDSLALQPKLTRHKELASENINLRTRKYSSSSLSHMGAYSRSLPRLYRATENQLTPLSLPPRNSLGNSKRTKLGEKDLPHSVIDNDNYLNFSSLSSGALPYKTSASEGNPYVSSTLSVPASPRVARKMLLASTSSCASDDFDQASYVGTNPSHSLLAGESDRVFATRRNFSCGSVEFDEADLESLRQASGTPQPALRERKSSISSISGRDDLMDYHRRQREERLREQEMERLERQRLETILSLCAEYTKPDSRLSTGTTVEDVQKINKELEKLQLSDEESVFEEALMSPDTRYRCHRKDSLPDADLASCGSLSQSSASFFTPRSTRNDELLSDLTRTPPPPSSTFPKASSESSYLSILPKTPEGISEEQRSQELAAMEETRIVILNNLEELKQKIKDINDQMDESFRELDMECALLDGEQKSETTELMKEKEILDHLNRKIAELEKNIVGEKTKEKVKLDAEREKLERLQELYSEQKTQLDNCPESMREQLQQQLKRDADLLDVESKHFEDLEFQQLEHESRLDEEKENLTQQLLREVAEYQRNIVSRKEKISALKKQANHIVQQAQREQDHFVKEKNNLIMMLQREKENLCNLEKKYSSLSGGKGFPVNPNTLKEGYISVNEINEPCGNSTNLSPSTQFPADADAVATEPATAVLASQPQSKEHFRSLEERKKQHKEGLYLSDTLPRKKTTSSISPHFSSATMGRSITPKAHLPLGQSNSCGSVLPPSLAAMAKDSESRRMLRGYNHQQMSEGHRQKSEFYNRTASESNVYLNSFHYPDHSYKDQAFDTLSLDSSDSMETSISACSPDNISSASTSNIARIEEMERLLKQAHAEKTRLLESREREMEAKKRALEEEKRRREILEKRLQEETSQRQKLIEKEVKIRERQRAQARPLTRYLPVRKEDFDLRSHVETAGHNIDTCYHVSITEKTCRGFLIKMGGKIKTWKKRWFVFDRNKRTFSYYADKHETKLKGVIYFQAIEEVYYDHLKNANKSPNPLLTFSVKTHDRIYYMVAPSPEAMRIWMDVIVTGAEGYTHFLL

B1: endogenous CLASP2 (natural protein)
chain: MAMGDDKSFDDEESVDGNRPSSAASAFKVPAPKTSGNPANSARKPGSAGGPKVGGASKEGGAGAVDEDDFIKAFTDVPSIQIYSSRELEETLNKIREILSDDKHDWDQRANALKKIRSLLVAGAAQYDCFFQHLRLLDGALKLSAKDLRSQVVREACITVAHLSTVLGNKFDHGAEAIVPTLFNLVPNSAKVMATSGCAAIRFIIRHTHVPRLIPLITSNCTSKSVPVRRRSFEFLDLLLQEWQTHSLERHAAVLVETIKKGIHDADAEARVEARKTYMGLRNHFPGEAETLYNSLEPSYQKSLQTYLKSSGSVASLPQSDRSSSSSQESLNRPFSSKWSTANPSTVAGRVSAGSSKASSLPGSLQRSRSDIDVNAAAGAKAHHAAGQSVRSGRLGAGALNAGSYASLEDTSDKLDGTASEDGRVRAKLSAPLAGMGNAKADSRGRSRTKMVSQSQPGSRSGSPGRVLTTTALSTVSSGVQRVLVNSASAQKRSKIPRSQGCSREASPSRLSVARSSRIPRPSVSQGCSREASRESSRDTSPVRSFQPLASRHHSRSTGALYAPEVYGASGPGYGISQSSRLSSSVSAMRVLNTGSDVEEAVADALKKPARRRYESYGMHSDDDANSDASSACSERSYSSRNGSIPTYMRQTEDVAEVLNRCASSNWSERKEGLLGLQNLLKNQRTLSRVELKRLCEIFTRMFADPHGKRVFSMFLETLVDFIQVHKDDLQDWLFVLLTQLLKKMGADLLGSVQAKVQKALDVTRESFPNDLQFNILMRFTVDQTQTPSLKVKVAILKYIETLAKQMDPGDFINSSETRLAVSRVITWTTEPKSSDVRKAAQSVLISLFELNTPEFTMLLGALPKTFQDGATKLLHNHLRNTGNGTQSSMGSPLTRPTPRSPANWSSPLTSPTNTSQNTLSPSAFDYDTENMNSEDIYSSLRGVTEAIQNFSFRSQEDMNEPLKRDSKKDDGDSMCGGPGMSDPRAGGDATDSSQTALDNKASLLHSMPTHSSPRSRDYNPYNYSDSISPFNKSALKEAMFDDDADQFPDDLSLDHSDLVAELLKELSNHNERVEERKIALYELMKLTQEESFSVWDEHFKTILLLLLETLGDKEPTIRALALKVLREILRHQPARFKNYAELTVMKTLEAHKDPHKEVVRSAEEAASVLATSISPEQCIKVLCPIIQTADYPINLAAIKMQTKVIERVSKETLNLLLPEIMPGLIQGYDNSESSVRKACVFCLVAVHAVIGDELKPHLSQLTGSKMKLLNLYIKRAQTGSGGADPTTDVSGQS
Take B1: the fold decrease of association against GFP-LL5β is 2 fold.
